Experimental data taken from patent US20220380455A1 (Alector, published 2022).
“And” between values parts separate entries of the source, which are not always exact repeats. Equal entries are not always repeated.

T1: cynomolgus (cyno) MS4A6A (cynomolgus, UniProt Q9H2W1 1-246 (human entry))
T1 construct: Full-length protein expressed in transfected HEK293, U937 or K562 cells (flow cytometry)
T1 chain: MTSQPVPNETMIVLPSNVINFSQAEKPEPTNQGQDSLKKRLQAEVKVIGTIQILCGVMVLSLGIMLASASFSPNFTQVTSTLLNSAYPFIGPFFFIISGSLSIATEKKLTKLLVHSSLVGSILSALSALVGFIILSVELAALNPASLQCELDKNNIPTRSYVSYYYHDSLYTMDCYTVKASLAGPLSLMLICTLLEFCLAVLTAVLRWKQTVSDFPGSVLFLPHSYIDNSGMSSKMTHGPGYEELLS

T2: MS4A6A ECL2 peptide (human)
T2 construct: also called MS4A6A ECL-2 peptides
T2 peptide: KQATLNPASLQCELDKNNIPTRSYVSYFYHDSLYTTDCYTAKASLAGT

T3: MS4A6A ECL1 peptide (human)
T3 construct: the description elsewhere gives ECL1 as 68-84; Human and cyno ECL1 are said to be identical
T3 peptide: SASFSPNFTQVTSTLLNS

T4: BSA-MS4A6A-ECL2 peptide (human, BSA-conjugated)
T4 construct: Synthetic peptide derived from ECL2, conjugated to BSA, coated on the ELISA plate; also called MS4A6A-ECL2 BSA conjugated peptide; BSA-MS4A6A-ELC2 peptide
T4 peptide: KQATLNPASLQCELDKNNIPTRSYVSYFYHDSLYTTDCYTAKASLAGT

B1: 6A-16 (antibody, V domains shown)
VH: EVQLQQSGPELVKPGASVKISCKASGYSFTGYYIHWVKESHVKSLEWIGRINPKNGVTSYNQNFKDKASLTVDRSSSTAYMDLYSLTSEDSAVYYCASTFITGWGQGTTVTVSS
VL: DVLLTQAPLSLPVSLGDQASISCRSSQTIVHSDGNTYLEWYLQKPGQSPKLLIYTVSNRFSGVPDRFSGSGSGTDFTLKISRVEAEDLGVYYCFQGSHVPWTFGGGTKLEIK
notes: Mouse hybridoma antibody, tested as hybridoma supernatant (mouse IgG, detected or captured via anti-mouse IgG Fc); also called anti-MS4A6A antibody 6A-16
B2: 6A-18 (antibody, V domains shown)
VH: EVQLQQSGPELVKPGASVKISCKASGYSFTGYYIHWVKESHVKSLEWIGRINPKNGVTSYNQNFKDKASLTVDRSSSTAYMDLYSLTSEDSAVYYCASTFITGWGQGTSLTVSS
VL: DVLLTQAPLSLPVSLGDQASISCRSSQTIVHSDGNTYLEWYLQKPGQSPKLLIYTVSNRFSGVPDRFSGSGSGTDFTLKISRVEAEDLGVYYCFQGSHVPWTFGGGTKLEIK
notes: Mouse hybridoma antibody, tested as hybridoma supernatant (mouse IgG, detected or captured via anti-mouse IgG Fc); also called anti-MS4A6A antibody 6A-18
B3: 6A-10 (antibody, V domains shown)
VH: QIQLVQSGPELKKPGETVKISCKASGYTFTNYGMNWVKQAPGKGLKWMGWINTYTGEPTYADDFKGRFAFSLETSASTAYLQINNLKNEDMATYFCARAYGNSAWFAYWGQGTLVTVSA
VL: QIVLSQSPAILSASPGEKVTMTCRASSSVSYMHWYQQKPGSSPKPWIYATSNLASGVPARFSGSGSGTSYSLTISRVEAEDAATYYCQQWSSNPWTFGGGTKLEIK
notes: Mouse hybridoma antibody, tested as hybridoma supernatant (mouse IgG, detected or captured via anti-mouse IgG Fc); also called anti-MS4A6A antibody 6A-10
B4: 6A-8 (antibody, V domains shown)
VH: QVQLQQSGAELARPGTSVKLSCKASGYTFTDYYINWVKQRNGQGLEWIGEIYPRSGNAYYNEKFRGKATLTTDKSSSTAYMQLSGLTSEDSAVYFCARGDGNWYFDVWGAGTTVIVSS
VL: DIVMTQSPSSLSVSAGEKVTMSCKSSQSLLNSGDQENYLVWYQQKPGQPPKLLIYGASTRESGVPDRFTGSGSGTDFTLTISSVLAEDLAVYYCQSDHSYPLTFGAGTKLELK
notes: Mouse hybridoma antibody, tested as hybridoma supernatant (mouse IgG, detected or captured via anti-mouse IgG Fc); also called anti-MS4A6A antibody 6A-8
B5: 6A-22 (antibody, V domains shown)
VH: EVNLEESGGDLVQPGGSMKLSCLASGFTFSDAWMDWVRQSPEKGLEWVAEIKNKANNYVTFYAASVKGRFTISRDDSKSSVYLQMNNLRPEDTGIYFCTRGSVYGNWFPYWGQGTLVTVSA
VL: DIVMSQSPSSLAVSAGEKVTMTCKSSQSLFNSRTRKNYLTWYQQKPGQSPKVLIYWASTRESGVPDRFTGSGSGTDFSLTISSVQADDLAVYYCKQSYNLLTFGAGTRLELK
notes: Mouse hybridoma antibody, tested as hybridoma supernatant (mouse IgG, detected or captured via anti-mouse IgG Fc); also called anti-MS4A6A antibody 6A-22
B6: 6A-23 (antibody, V domains shown)
VH: EVNLEESGGDLVQPGGSMKLSCLASGFTFSDAWMDWVRQSPEKGLEWVAEIKNKANNYVTFYAASVKGRFTISRDDSKSSVYLQMNSLRLEDTGIYFCTRGSVYGNWFPYWGQGTLVTVSA
VL: DIVMSQSPSSLAVSAGEKVTMTCKSSQSLFNSRTRKNYLTWYQQKPGQSPKVLIYWASTRESGVPDRFTGSGSGTDFSLTINSVQADDLAVYYCKQSYNLLTFGAGTKLELK
notes: Mouse hybridoma antibody, tested as hybridoma supernatant (mouse IgG, detected or captured via anti-mouse IgG Fc); also called anti-MS4A6A antibody 6A-23
B7: 6A-6 (antibody, V domains shown)
VH: QIQLVQSGPELKKPGESVKISCKASGYTFANYGMNWVKLAPGKGLKWMGYINIYSGKSRYADDFKGRFAFSLETSASTAYLQINNLKNEDMATYFCARDNDYFDYWGQGTTLTVSS
VL: DIVLTQSPATLSVTPGDTVSLSCRASQSISDNLHWYQQKSHESPGLLIKYASQSISGIPSRFSGRGSGTDFTLSINSVDSEDFGVYFCQQSNSWPYTFGGGTKLEIK
notes: Mouse hybridoma antibody, tested as hybridoma supernatant (mouse IgG, detected or captured via anti-mouse IgG Fc); also called anti-MS4A6A antibody 6A-6
B8: 6A-21 (antibody, V domains shown)
VH: EVQLQQSGPELVKPGASVKMSCKASGYTFTDYFMKWVKQSHGKSLEWIGDINPKNGDTFYNQKFKGKATLTVDKSSSTAYMQLNSLTSEDSAVYYCARPGYFDVWGAGTTVTVSS
VL: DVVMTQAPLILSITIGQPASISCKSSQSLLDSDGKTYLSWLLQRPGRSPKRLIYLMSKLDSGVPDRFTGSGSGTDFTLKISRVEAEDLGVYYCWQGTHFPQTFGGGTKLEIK
notes: Mouse hybridoma antibody, tested as hybridoma supernatant (mouse IgG, detected or captured via anti-mouse IgG Fc); also called anti-MS4A6A antibody 6A-21

How the values were obtained:
cynomolgus (cyno) MS4A6A [1] = target: T1, cynomolgus (cyno) MS4A6A; experiment: flow cytometry, hybridoma supernatant, HEK293 transfected with cyno MS4A6A over parental HEK293; Screen 1
Procedure: (§1) Positive clones were expanded and then rescreened for specificity against HEK293 cells overexpressing cyno MS4A6A and parental HEK293 cells. Briefly, previously prepared, cryopreserved transiently-transfected cells were labeled with LIVE/DEAD Fixable Aqua Dead Cell Stain Kit (ThermoFisher Scientific L34957) on ice for 30 minutes. After a wash with PBS, 2×10⁵ cells were aliquoted per well in 96-well round bottom plates and incubated with 50 μl of culture supernatant on ice for 30 mins. […] Following this secondary incubation, the cells were again washed twice with ice-cold FACS buffer and resuspended in a final volume of 200 μl of FACS buffer. Analysis was performed on a FACS Canto system (BD Biosciences), with sort gates drawn to exclude dead (Aqua-positive) cells. […] The screen was repeated twice, and the numbers reported here represent the ratio of mean fluorescence level in transfected cells over parental cells.

MS4A6A ECL2 peptide = target: T2, MS4A6A ECL2 peptide; experiment: array SPR (Carterra MX-96), antibody captured on anti-mouse IgG-Fc, ECL2 peptide injected
Procedure: Binding kinetic characterization of the purified antibodies to MS4A6A ECL1 and ECL2 peptides was performed by Carterra (South San Francisco, Calif.) using a proprietary array Surface Plasmon Resonance (SPR) instrument (MX-96) as follows. Antibodies were printed onto a CMD5OOD chip (Xantec #SPMX CMD500D lot #SC CMD500D0117.a Exp. 31.12.18) using the Continuous Flow Microspotter (CFM). First, the chip was activated with 100 mM MES pH 5.5, 100 μL EDC (133 mM final), 100 μL of S-NHS (33.3 mM final), for 7 minutes. A lawn of anti-mouse IgG-Fc (Jackson ImmunoResearch CAT #115-005-071 lot#130410) was injected for 15 minutes to establish a surface density of 10000-12000 RU, after which the chip surface was deactivated with 1 M ethanolamine at pH 8.5 for 10 minutes. Anti-MS4A6A antibodies in question, in the form of hybridoma supernatants diluted 2:1 with HBS-EP+buffer (Teknova CAT #H8022), were then printed as duplicates with a 20 minute and a 5 minutes print from the same sample solution. Control antibodies were diluted to 20 μ/ml for printing.
To perform kinetic analysis, the peptides in question were prepared in HBS-EP+buffer with lmg/ml BSA at final assay concentrations of 2000 nM, 400 nM, 80 nM, 16 nmM, and 3.2 nM. These were then injected on the chip for five minutes, followed by a seven-minute dissociation period at 8 uL per second in a non-regenerative kinetic series. Duplicate measurements for each anti-MS4A6A antibody were taken to ensure reproducibility.
Kₐ (association rate constant; Kₒₙ), Kd (dissociation rate constant; Koff) and KD (equilibrium constant) to MS4A6A ECL-2 peptides were calculated for each of the 23 anti-MS4A6A antibodies tested, the results of which are shown below in Table 5 (clones that bound too weakly to determine these values are denoted as N/A in Table 5).

cynomolgus (cyno) MS4A6A [2] = target: T1, cynomolgus (cyno) MS4A6A; experiment: flow cytometry, hybridoma supernatant, HEK293 transfected with cyno MS4A6A over parental HEK293; Screen 2
Procedure: as §1

MS4A6A ECL1 peptide = target: T3, MS4A6A ECL1 peptide; experiment: peptide ELISA, hybridoma supernatant
Procedure: (§2) Anti-MS4A6A hybridoma supernatants were tested for binding to MS4A6A peptides derived from ECL1 (amino acid residues 68-85 of human MS4A6A of SEQ ID NO:1) and ECL2 (amino acid residues 138-185 of human MS4A6A of SEQ ID NO:1) sequences, using an enzyme-linked immunosorbent assay (ELISA). Briefly, 96-well polystyrene plates were coated with 1-10 μg/mL of synthetic free or BSA-conjugated peptides in coating buffer (0.05M carbonate buffer, pH9.6, Millipore Sigma C3041) overnight at 4° C. Coated plates were then blocked with ELISA diluent (PBS+0.5% BSA+0.05% Tween20) for 1-hour, washed 3×300 μL in PBST (PBS+0.05% Tween20, Thermo 28352), and then the antibodies were added at various dilutions (100-1000×) in ELISA diluent. After 30 mins incubation (room temperature, with shaking), the plates were washed 3×300 μl in PBST. A secondary anti-mouse HRP antibody (Jackson Immunoresearch CAT #115-035-003) was added at a 1:1000 dilution in ELISA diluent (50 μL/well) and incubated for 30 minutes at room temperature with shaking. After a final set of washes (3×300 μl in PBST), 50 μL of TMB substrate (BioFx TMBW-1000-01) was added and the reaction was then quenched after 5-10 mins with 50 μL of stop solution (BioFx BSTP-1000-01). The quenched reaction wells were detected for absorbance at […] with a BioTek Synergy Microplate Reader using GENS 2.04 software.

BSA-MS4A6A-ECL2 peptide = target: T4, BSA-MS4A6A-ECL2 peptide; experiment: peptide ELISA, hybridoma supernatant
Procedure: as §2

Binder | ratio of APC MFI on MS4A6A+/HEK parental cells (cynomolgus (cyno) MS4A6A [1]) | Kd (MS4A6A ECL2 peptide) | koff (MS4A6A ECL2 peptide) | kon (MS4A6A ECL2 peptide) | ratio of APC MFI on MS4A6A+/HEK parental cells (cynomolgus (cyno) MS4A6A [2]) | binding result (MS4A6A ECL1 peptide) | binding result (BSA-MS4A6A-ECL2 peptide)
B1 | 14.4 ratio | 180 nM and 150 nM | 0.00097 s⁻¹ and 0.00049 s⁻¹ | 5500 M⁻¹ s⁻¹ and 3400 M⁻¹ s⁻¹ | 28.5 ratio | no binding | –
B2 | 4.1 ratio | 180 nM | 0.00049 s⁻¹ | 2700 M⁻¹ s⁻¹ | 20.3 ratio | no binding | –
B3 | 18 ratio | 190 nM | 0.0013 s⁻¹ | 6600 M⁻¹ s⁻¹ | 95.2 ratio | no binding | –
B4 | 26.7 ratio | 170 nM | 0.001 s⁻¹ | 6300 M⁻¹ s⁻¹ | 69.5 ratio | no binding | –
B5 | 175 ratio | 390 nM and 250 nM | 0.0023 s⁻¹ and 0.0021 s⁻¹ | 6000 M⁻¹ s⁻¹ and 8400 M⁻¹ s⁻¹ | 68.8 ratio | no binding | –
B6 | 156 ratio | 120 nM and 150 nM | 0.00065 s⁻¹ and 0.0008 s⁻¹ | 5400 M⁻¹ s⁻¹ and 5500 M⁻¹ s⁻¹ | 82 ratio | no binding | –
B7 | 13.5 ratio | – | – | – | 62.1 ratio | no binding | binds
B8 | 71.8 ratio | 200 nM | 0.001 s⁻¹ | 5300 M⁻¹ s⁻¹ | 136 ratio | no binding | –
